Experimental data taken from patent US20110300138A1 (published 2011).

How the values were obtained:
[1] = target: human TSH receptor (full length, wild type) expressed in CHO cells (human) (UniProt P16473); test: cell-based or functional assay
[2] = target: human TSH receptor (full length, wild type) expressed on CHO cells (human) (UniProt P16473); test: cell-based or functional assay

NIBSC reference preparation 90/672 (Thyroid Stimulating Autoantibody reference preparation)
Cyclic AMP concentration at 0.1 units/L NIBSC 90/672 [1]: 5 pmol/mL
Cyclic AMP concentration at 0.3 units/L NIBSC 90/672 [1]: 12.5 pmol/mL
Cyclic AMP concentration at 1 unit/L NIBSC 90/672 [1]: 27.4 pmol/mL

native human TSH (from UniProt P01215 25-116; P01222 21-132) (ligand)
Cyclic AMP concentration in hypotonic medium; 100 ng/mL hTSH alone [2]: 56.8 pmol/mL
Cyclic AMP concentration in isotonic medium; 100 ng/mL hTSH alone [2]: 42.3 pmol/mL

recombinant human TSH (from UniProt P01215 25-116; P01222 21-138) (ligand)
Cyclic AMP concentration in hypotonic medium; 100 ng/mL rhTSH alone [2]: 37.8 pmol/mL
Cyclic AMP concentration in isotonic medium; 100 ng/mL rhTSH alone [2]: 29.9 pmol/mL
